Data on one molecule can be found in US20030144205A1.

This assay addresses T1, mouse RFPL4, full-length (amino acid residues 1-287) (mouse) (UniProt Q8VH31).
T1 sequence (looked up): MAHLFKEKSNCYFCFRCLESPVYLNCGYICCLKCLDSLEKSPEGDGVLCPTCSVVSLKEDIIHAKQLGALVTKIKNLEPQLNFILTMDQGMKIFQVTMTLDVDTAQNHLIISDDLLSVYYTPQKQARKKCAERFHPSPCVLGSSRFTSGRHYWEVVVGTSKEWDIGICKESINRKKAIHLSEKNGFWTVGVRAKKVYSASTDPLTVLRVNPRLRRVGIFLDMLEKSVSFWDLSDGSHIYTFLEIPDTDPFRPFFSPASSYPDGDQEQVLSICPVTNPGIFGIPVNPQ
The assay is described as follows: yeast two-hybrid mating screen of the ovary cDNA library with pGBKT7-RFPL4 as bait.

B1: Phosphoserine/threonine/tyrosine interaction protein (STYX) (protein, mouse, UniProt Q60969 1-223, looked up)
chain: MEDVKLEFPSLPQCKDDAEEWTYPMRREMQEVLPGLFLGPYSSAMKSKLPILQKHGITHIICIRQNIEANFIKPNFQQLFRYLVLDIADNPVENIIRFFPMTKEFIDGSLQNGGKVLVHGNAGISRSAAFVIAYIMETFGMKYRDAFAYVQERRFCINPNAGFVHQLQEYEAIYLAKLTIQMMSPLQIERSLAVHSGTTGSVKRTHEEDDDFGNMQVATAQNG
As for B1, the # of clones came to 1 clones.
